From article PMC11951571, “Mechanism of non-coding RNA regulation of DNMT3A”

Tests used:
DNMT3A_CD R771A;DNMT3L = DNMT3A_CD R771A;DNMT3L (human;human, UniProt Q9Y6K1;Q9UJW3 634-912;1-386, R771A|); test: fluorescence anisotropy; heterotetramer pre-bound to 10 nM FAM-GCbox30; 50 uM sinefungin; 50 mM KH2PO4/K2HPO4 pH 7.8, 1 mM EDTA, 1 mM DTT, 0.2 mg/ml BSA, 20 mM NaCl, 50 uM sinefungin (printed 'μm'), room temperature, 5 min; conditions: protein: recombinant;recombinant; tags: His (pET28a, nickel column);; chain copies: 2;2; 25 nt
Sequence of DNMT3A_CD R771A;DNMT3L (Q9Y6K1 634-912 R771A, chain 1 of 2): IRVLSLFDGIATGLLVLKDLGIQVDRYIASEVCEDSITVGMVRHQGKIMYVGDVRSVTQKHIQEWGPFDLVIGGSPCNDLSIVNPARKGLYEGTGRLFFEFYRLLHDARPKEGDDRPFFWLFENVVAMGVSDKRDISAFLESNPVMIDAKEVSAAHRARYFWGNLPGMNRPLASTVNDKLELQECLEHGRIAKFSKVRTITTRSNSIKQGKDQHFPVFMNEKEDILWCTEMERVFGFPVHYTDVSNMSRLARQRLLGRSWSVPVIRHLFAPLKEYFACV
Sequence of DNMT3A_CD R771A;DNMT3L (Q9UJW3 whole entry, chain 2 of 2): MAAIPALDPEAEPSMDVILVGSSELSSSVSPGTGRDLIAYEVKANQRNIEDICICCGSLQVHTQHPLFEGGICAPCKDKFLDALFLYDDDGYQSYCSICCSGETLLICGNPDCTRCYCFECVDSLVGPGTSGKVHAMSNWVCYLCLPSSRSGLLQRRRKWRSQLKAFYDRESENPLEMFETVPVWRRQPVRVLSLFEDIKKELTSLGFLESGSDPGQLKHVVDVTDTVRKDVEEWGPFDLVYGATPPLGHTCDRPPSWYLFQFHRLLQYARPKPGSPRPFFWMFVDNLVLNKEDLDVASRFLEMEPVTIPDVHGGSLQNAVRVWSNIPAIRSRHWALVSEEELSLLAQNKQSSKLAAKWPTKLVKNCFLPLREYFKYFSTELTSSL

DNMT3A_CD R729A = DNMT3A_CD R729A (human, UniProt Q9Y6K1 634-912, R729A); test: fluorescence anisotropy; 1 uM protein pre-bound to 10 nM FAM-GCbox30; 50 uM sinefungin; 50 mM KH2PO4/K2HPO4 pH 7.8, 1 mM EDTA, 1 mM DTT, 0.2 mg/ml BSA, 20 mM NaCl, 50 uM sinefungin (printed 'μm'), room temperature, 5 min; conditions: protein: recombinant; tags: His (pET28a, nickel column); chain copies: 2; 25 nt
Sequence of DNMT3A_CD R729A (Q9Y6K1 634-912 R729A): as the sequence (Q9Y6K1 634-912 R771A, chain 1 of 2) above, with R96A, A138R counted along it

DNMT3A_CD R736A = DNMT3A_CD R736A (human, UniProt Q9Y6K1 634-912, R736A); test: as above; conditions: protein: recombinant; tags: His (pET28a, nickel column); chain copies: 4; 25 nt
Sequence of DNMT3A_CD R736A (Q9Y6K1 634-912 R736A): as the sequence (Q9Y6K1 634-912 R771A, chain 1 of 2) above, with R103A, A138R counted along it

DNMT3A_FL WT [1] = target: T1, DNMT3A_FL WT (human, UniProt Q9Y6K1 1-912); test: fluorescence anisotropy; 1 uM protein in complex with 10 nM FAM-H3K4me0 peptide (1-21); 50 uM sinefungin; 50 mM KH2PO4/K2HPO4 pH 7.8, 1 mM EDTA, 1 mM DTT, 0.2 mg/ml BSA, 20 mM NaCl, 50 uM sinefungin (printed 'μm'), room temperature, 5 min
T1 sequence (Q9Y6K1 whole entry): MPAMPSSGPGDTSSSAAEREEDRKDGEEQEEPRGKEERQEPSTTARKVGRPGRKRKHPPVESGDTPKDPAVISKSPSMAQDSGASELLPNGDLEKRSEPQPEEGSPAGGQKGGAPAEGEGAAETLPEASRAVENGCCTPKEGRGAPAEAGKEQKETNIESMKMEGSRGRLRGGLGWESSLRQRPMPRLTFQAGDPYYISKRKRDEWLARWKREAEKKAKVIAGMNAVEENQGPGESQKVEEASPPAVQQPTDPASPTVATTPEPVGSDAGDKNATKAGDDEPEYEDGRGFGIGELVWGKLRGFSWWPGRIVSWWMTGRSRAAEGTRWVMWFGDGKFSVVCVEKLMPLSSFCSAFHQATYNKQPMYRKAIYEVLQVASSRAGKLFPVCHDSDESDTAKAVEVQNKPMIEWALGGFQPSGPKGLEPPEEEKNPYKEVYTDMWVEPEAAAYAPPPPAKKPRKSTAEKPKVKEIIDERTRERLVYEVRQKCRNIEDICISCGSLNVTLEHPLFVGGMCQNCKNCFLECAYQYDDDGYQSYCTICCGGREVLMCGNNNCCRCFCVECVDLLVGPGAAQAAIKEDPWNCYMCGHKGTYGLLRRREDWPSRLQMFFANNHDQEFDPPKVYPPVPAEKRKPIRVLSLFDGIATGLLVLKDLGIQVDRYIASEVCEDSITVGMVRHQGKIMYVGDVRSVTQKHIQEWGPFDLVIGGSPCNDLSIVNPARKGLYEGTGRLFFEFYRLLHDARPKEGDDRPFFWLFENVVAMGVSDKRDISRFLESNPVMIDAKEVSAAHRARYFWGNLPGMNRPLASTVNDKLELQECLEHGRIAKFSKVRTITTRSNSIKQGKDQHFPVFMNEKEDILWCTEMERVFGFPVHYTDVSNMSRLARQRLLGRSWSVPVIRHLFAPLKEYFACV

DNMT3A_CD WT = DNMT3A_CD WT (human, UniProt Q9Y6K1 634-912); test: fluorescence anisotropy; 1 uM protein pre-bound to 10 nM FAM-GCbox30; 50 uM sinefungin; anisotropy rises on RNA addition; 50 mM KH2PO4/K2HPO4 pH 7.8, 1 mM EDTA, 1 mM DTT, 0.2 mg/ml BSA, 20 mM NaCl, 50 uM sinefungin (printed 'μm'), room temperature, 5 min; conditions: protein: recombinant; tags: His (pET28a, nickel column); chain copies: 4; 25 nt
Sequence of DNMT3A_CD WT (Q9Y6K1 634-912): as the sequence (Q9Y6K1 634-912 R771A, chain 1 of 2) above, with A138R counted along it

DNMT3A_FL WT [2] = target: T1, DNMT3A_FL WT; test: fluorescence anisotropy; 1 uM protein in complex with 10 nM FAM-H3K4me0 peptide (1-21); 50 uM sinefungin; no anisotropy change; 50 mM KH2PO4/K2HPO4 pH 7.8, 1 mM EDTA, 1 mM DTT, 0.2 mg/ml BSA, 20 mM NaCl, 50 uM sinefungin (printed 'μm'), room temperature, 5 min

Row | Binder | binding result (DNMT3A_CD R771A;DNMT3L) | binding result (DNMT3A_CD R729A) | binding result (DNMT3A_CD R736A) | binding result (DNMT3A_FL WT [1]) | binding result (DNMT3A_CD WT) | binding result (DNMT3A_FL WT [2])
1 | GGGGACACGCCCUCUGUUCCCUUAU (ssRNA) [Fos-1 ecRNA] | binds | binds | binds | binds | binds | –
2 | CGACCGCCUACUGAAAGAGGGC (ssRNA) [non-specific RNA] | – | – | – | – | – | no binding
